Experimental data as given in the RNAGym collection of RNA variant scans (doi:10.7554/elife.80360).

B1: HDV Ribozyme (parent)
chain: GGCCGGCAUGGUCCCAGCCUCCUCGCUGGCGCCGGCUGGGCAACAUUCCGAGGGGACCGUCCCCUCGGUAAUGGCGAAUGGGACCCA

Variants of: B1
Assay: self-cleavage, relative activity (ratio to wild type); higher = more cleavage; co-transcriptional

Row | Variant | self-cleavage
1 | G34U C58A | 0.111
2 | C13U C48A | 0.415
3 | G80U G82U | 0.147
4 | C18G G67U | 0.101
5 | A51G A70C | 0.974
6 | G76U C85U | 1.24
7 | G59C C84U | 0.774
8 | C13U C62A | 0.489
9 | G52C U79C | 0.582
10 | U37G A43U | 0.208
11 | G81A G82A | 0.201
12 | C3U C19U | 0.126
13 | G81U C85A | 0.389
14 | C61G C85U | 1.04
15 | G40C A70G | 0.0941
16 | C7A G54A | 0.504
17 | C24A A43G | 0.256
18 | G1C G54C | 0.26
19 | U12C A70C | 0
20 | C62U C75A | 0.166
21 | C3U C48A | 0.675
22 | C22G A77G | 0.0504
23 | C19A G81C | 0.0272
24 | G67U U72G | 0.389

Row | Variant | self-cleavage
25 | C30G G34A | 0
26 | C48G G74U | 0.509
27 | U47G G80A | 0.242
28 | U12C G52A | 0.554
29 | C4G A87C | 0.373
30 | C33U G80C | 0.143
31 | U37G U69G | 0.0723
32 | C19G G35C | 0.208
33 | G11A C21U | 0.175
34 | A45U C75G | 0.133
35 | G17A C22G | 0.0573
36 | C33A C48A | 0.314
37 | C33A A78G | 0.161
38 | C26G C49G | 0.87
39 | G50U U69A | 0.872
40 | C48G U72G | 0.369
41 | A45G C86G | 0.95
42 | G31C G74C | 0.106
43 | G39C G59U | 0.147
44 | G1C G5C | 0
45 | U12A A56U | 0.403
46 | A16C A42G | 0.229
47 | C32A A51G | 0.162
48 | U9A G73U | 0.244

Row | Variant | self-cleavage
49 | G29U U65G | 0.0755
50 | G52A C66G | 0.841
51 | G67C A87C | 0.84
52 | U46A C85A | 0.7
53 | C4U C61A | 0.978
54 | C26U C48G | 1.07
55 | G17U G67U | 0.609
56 | C4A A42U | 0.0997
57 | C33G A87U | 0.151
58 | C41A U46G | 0.554
59 | U27C C84A | 0.923
60 | G53U U72A | 0.798
61 | C18G U27G | 0.128
62 | G39U A43U | 0.148
63 | G68A G82C | 0.153
64 | G11U C13A | 0.197
65 | C14A G68U | 0.462
66 | G2U C86U | 0.095
67 | G34C C44G | 0.0332
68 | G25A G81C | 0.258
69 | C7A C14U | 0.447
70 | G35A A78U | 0.253
71 | A71U G82C | 0.135
72 | C41U G50C | 0.67

Row | Variant | self-cleavage
73 | U23A G53U | 0.923
74 | C84A A87G | 0.61
75 | C49G A70C | 0.415
76 | C22A G76U | 0.554
77 | G50A C64G | 0.404
78 | C4U U23A | 0.727
79 | G59U A71G | 1.13
80 | G67C G68U | 0.847
81 | C3G C19U | 0.158
82 | C36A G40A | 0.234
83 | C62G G80U | 0.185
84 | G11A G39C | 0
85 | G6A A51G | 0.517
86 | G31C C85A | 0.317
87 | A42U A77C | 0.0519
88 | U69C C75G | 0.213
89 | A8C G74C | 0.269
90 | C58U C63A | 0.986
91 | A8G C85U | 1.06
92 | A16C G17U | 0.332
93 | U47A A70C | 0.957
94 | A16G C49G | 0.875
95 | G40U A45G | 0.688
96 | U27C C44A | 0.447

Row | Variant | self-cleavage
97 | A56G U69C | 1.32
98 | C41G G80C | 0.164
99 | G68C G73A | 0.193
100 | G17U A42G | 0.0489
101 | U46A G74C | 0.297
102 | G34C U79G | 0.0615
103 | C14A C15A | 0.582
104 | A43U U72G | 0.256
105 | U9A G10C | 0.875
106 | C26A U47C | 0.646
107 | G5C A51C | 0.293
108 | G1A G74C | 0
109 | G80C A87C | 0.237
110 | C3G G28A | 0.0326
111 | C44U C57U | 0.704
112 | G40U G50C | 0.626
113 | G10C G67U | 0.782
114 | G2C G35A | 0.0623
115 | U37C C84A | 0.697
116 | G55U C63U | 0.997
117 | A8U A56G | 0.957
118 | C61G A78U | 0.219
119 | C41G G53C | 0.658
120 | G1A G80C | 0.119

Row | Variant | self-cleavage
121 | G35C C41U | 0.0978
122 | C15A G50C | 0.404
123 | G52U U72C | 0.426
124 | C49A C64U | 0.831
125 | G5U G81C | 0
126 | C13G C75G | 0.128
127 | C26G G50U | 1.05
128 | G11U G29U | 0.0536
129 | U9G C24U | 0.767
130 | A77U U79C | 0.0811
131 | U27G G50A | 0.923
132 | G2U C24G | 0.0225
133 | C64G U69A | 1.01
134 | C24A C58A | 0.863
135 | G40C G55A | 0.121
136 | U37G G67U | 0.18
137 | G2A G73C | 0.0608
138 | G29A C61A | 0.177
139 | C14A U46A | 0.199
140 | C3G G76U | 0.926
141 | C36G C57G | 0.162
142 | C13G C64U | 0.0268
143 | C15G C33A | 0.0405
144 | A42G U72G | 0.35

Row | Variant | self-cleavage
145 | G31A U69C | 0.525
146 | G17U C44A | 0.323
147 | G1U C19A | 0.383
148 | G17U C86A | 0.369
149 | A8C G11A | 0.229
150 | U27A U72G | 0.739
151 | G31U | 0.47
152 | U12A G39C | 0.0594
153 | G6C U12G | 0
154 | G6A A77G | 0.277
155 | C21A G52U | 0.107
156 | C4U C14U | 1.04
157 | C32A C33G | 0.0405
158 | C32G C57G | 0.225
159 | U37C U65A | 0.929
160 | G29A A71U | 0.0615
161 | G10A C48G | 0.671
162 | G25C G39C | 0
163 | G17U G80A | 0.272
164 | C48G A77C | 0.323
165 | G38A C61U | 0.0573
166 | C49U C84U | 0.676
167 | C26U C86U | 0.831
